Experimental data reported in article PMC13410764.

Target: Tr1 protein of Anaplasma phagocytophilum (recombinant, tagless) (Anaplasma phagocytophilum)
Assay: SEC; gel filtration on a HiPrep Sephadex 75 16/600 column with Buffer B; apparent molecular weights from a standard curve of elution volumes

Work on “Tr1 protein of Anaplasma phagocytophilum (recombinant, tagless) (natural protein)” yielded a stoichiometry N of 4.
